Results on one molecule are retold here after patent publication US12428627B2, “Mutant p-hydroxyphenylpyruvate dioxygenase, and coding nucleic acid and use thereof” (Qingdao Kingagroot Chemical Compound Co., Ltd., priority 2018, dated 2025).

Data set [1] relates to transgenic rice (Zhonghua 11). Briefly: Herbicide resistance of transgenic rice seedlings (T0) on medium containing tembotrione. Type of data set: in vivo. The following applies: T0 transgenic seedlings overexpressing the mutant, differentiation medium. The source says: • 1. Construction of overexpression vector • 1) Primers: primers were designed according to the selected restriction sites and the nucleotide sequence of the gene itself to amplify the three-site mutant HPPD (H141R/G342D/D370N) (OsHPPD3M). The designed primers were synthesized by Beijing Qingke Biotechnology Co., Ltd.: HPPD-F, […] ATGCCTCCCACT CCCACCC, HPPD-R, […] GGC. • 2) PCR amplification: the gene of interest was amplified by using the synthesized primer and Q5 DNA polymerase (NEB, New England Biolabs, Boston, USA). The amplified product was assayed by agarose gel electrophoresis, and the product was recovered according to operational instructions of the TIANquick Midi Purification kit. After the completion of the recovery, the concentration of extracted DNA was determined by Nanodrop. • 3) Construction of a rice overexpression vector: the rice overexpression vector pCAMBIA1301-OsHPPD3M was constructed with the recovered HPPD fragments and plasmid pCAMBIA1301 digested by KpnI and HindIII by using the HB-in Fusions™ seamless cloning kit of HanBio Biotechnology Co., Ltd., (Shanghai), and then transformed into the competent E. coli DH5α to obtain a positive clone; the positive clone was transformed into Agrobacterium after sequencing and restriction endonuclease digestion. • 2. […]

Data set [2] concerns OsHPPD. Kind of data set: HPPD enzyme activity assay: Km, Kcat and Kcat/Km of OsHPPDs. It is filed as biochemical, Oryza sativa. As to conditions: substrate 4-HPP.

B1: H141R/G342D/D370N: three-site mutant rice HPPD (OsHPPD3M) (protein, listed as Oryza sativa)
chain: MPPTPTPTATTGAVSAAAAAGENAGFRLVGHRRFVRANPRSDRFQALAFHHVELWCADAASAAGRFAFALGAPLAARSDLSTGNSAHASLLLRSASVAFLFTAPYGGDHGVGADAATTASIPSFSPGAARRFAADHGLAVRAVALRVADAADAFRASVAAGARPAFQPADLGGGFGLAEVELYGDVVLRFVSHPDGADAPFLPGFEGVSNPGAVDYGLRRFDHVVGNVPELAPVAAYISGFTGFHEFAEFTAEDVGTAESGLNSVVLANNAETVLLPLNEPVHGTKRRSQIQTYLDHHGGPGVQHIALASDDVLGTLREMRARSAMGGFEFLAPPPPNYYDDVRRRAGDVLSEEQINECQELGVLVDRDNQGVLLQIFTKPVGDRPTFFLEMIQRIGCMEKDESGQEYQKGGCGGFGKGNFSELFKSIEEYEKSLEAKQAPTVQGS
modifications: The amino acid sequence of Wild-Type rice HPPD protein (OsHPPD _WT)
What is called Km is the substrate concentration at which the rate is half of its maximum. In the case of B1, the “tembotrione concentration in culture medium tolerated (remains green)” value in data set [1] came out at 3 µM. The Km in data set [2] was 10.9 µM.
